Source: patent publication US20040147432A1 (MERCK, published 2004)
Like-named read-outs stand apart in the source and are kept apart here. Bridges are numbered along the chain shown (N, C = ends). Where no end group is shown, it is not given here. [ ]: non-standard residue; d: D form. dCha = N[C@H](CC1CCCCC1)C(=O)O; Aib = CC(C)(N)C(=O)O

Legend:
[1] = biological target: T1, human melanin concentrating hormone type 2 receptor (MCH-2R) (human, UniProt Q969V1 1-340); experiment: cell-based or functional assay
[2] = biological target: T1, human melanin concentrating hormone …; experiment: SPA competition with [125I]-human MCH (Phe13, Tyr19) on receptor membranes
Method: (§1) For the SPA-based assay, WGA-PVT beads (NEN Life Sciences Products) were resuspended in Dulbecco's PBS with calcium and magnesium (500 mg beads in 4 ml PBS). […] The suspension was mixed gently for 20 minutes, 12.3 ml of assay buffer and protease inhibitors were added (final concentration given): 2 μg/ml leupeptin, 10 μM phosphoramidon, 40 μg/ml bacitracin, 5 μg/ml aprotinin, 0.1 mM Pefabloc.
(§2) Coated beads were kept on ice until use. […] Binding reactions were allowed to proceed at room temperature for 3 hours. Quantitation was performed by scintillation counting (TopCount device).

human MCH-1R [3] = biological target: T2, human MCH-1R (human, UniProt Q99705 1-353); experiment: cell-based or functional assay
human MCH-1R [4] = biological target: T2, human MCH-1R; experiment: SPA competition with [125I]-human MCH (Phe13, Tyr19) on receptor membranes
Method: as §1, §2

[5] = biological target: T1, human melanin concentrating hormone …; experiment: cell-based or functional assay; remark: listed apart in the source
human MCH-1R [6] = biological target: T2, human MCH-1R; experiment: cell-based or functional assay; remark: listed apart in the source
[7] = biological target: T1, human melanin concentrating hormone …; experiment: SPA competition with [125I]-human MCH (Phe13, Tyr19) on receptor membranes; remark: listed apart in the source
Method: as §1, §2

human MCH-1R [8] = biological target: T2, human MCH-1R; experiment: as above; remark: listed apart in the source
Method: as §1, §2

T2 sequence (Q99705 whole entry, form in doubt): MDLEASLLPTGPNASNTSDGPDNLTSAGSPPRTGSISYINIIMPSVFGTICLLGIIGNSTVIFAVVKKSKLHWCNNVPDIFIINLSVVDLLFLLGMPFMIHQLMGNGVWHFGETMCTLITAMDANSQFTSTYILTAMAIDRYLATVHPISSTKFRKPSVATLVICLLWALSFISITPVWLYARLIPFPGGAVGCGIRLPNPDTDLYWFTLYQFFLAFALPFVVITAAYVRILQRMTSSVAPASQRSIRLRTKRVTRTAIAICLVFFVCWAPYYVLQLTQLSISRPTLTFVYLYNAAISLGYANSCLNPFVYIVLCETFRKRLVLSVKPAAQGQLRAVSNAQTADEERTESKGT
T1 sequence (Q969V1 whole entry, form in doubt): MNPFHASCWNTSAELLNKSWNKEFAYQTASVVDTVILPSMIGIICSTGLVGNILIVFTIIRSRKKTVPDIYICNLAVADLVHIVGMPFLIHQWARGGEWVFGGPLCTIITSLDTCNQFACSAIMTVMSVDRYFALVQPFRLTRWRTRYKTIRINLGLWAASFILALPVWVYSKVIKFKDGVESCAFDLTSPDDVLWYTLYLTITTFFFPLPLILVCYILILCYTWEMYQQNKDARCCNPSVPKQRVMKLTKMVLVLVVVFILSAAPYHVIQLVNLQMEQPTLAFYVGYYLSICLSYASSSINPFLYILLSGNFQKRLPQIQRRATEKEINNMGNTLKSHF

Row | Activation % at 10 µM (aequorin functional assay) [1] [%] | EC50 (aequorin functional assay) [1] [nM] | IC50 [2] [nM] | Activation % at 10 µM (aequorin functional assay) (human MCH-1R [3]) [%] | EC50 (aequorin functional assay) (human MCH-1R [3]) [nM] | IC50 (human MCH-1R [4]) [nM] | Activation % at 10 µM (aequorin functional assay) [5] [%] | EC50 (aequorin functional assay) [5] [nM] | Activation % at 10 µM (aequorin functional assay) (human MCH-1R [6]) [%] | EC50 (aequorin functional assay) (human MCH-1R [6]) [nM] | IC50 [7] [nM] | IC50 (human MCH-1R [8]) [nM] | % @ concentration (human MCH-1R [8]) [% @ 1 µM] | Binder
1 | 96 | 114 | 2.1 | – | – | – | – | – | – | – | – | – | – | AFDMLRCMLGRVYRPCWQV (disulfide 7-16, positions 1-19 as in hMCH; also called Ala^1) [SEQ. ID. NO. 41]
2 | – | > 1000 | 290 | 24 | 5240 | 169 | – | – | – | – | – | – | – | DFDMLRCMLGAVYRPCWQV (disulfide 7-16) [SEQ. ID. NO. 49]
3 | 96 | 84.2 | 19 | 99 | 34.7 | 1.9 | – | – | – | – | – | – | – | DFDMLRCMLGRVYRACWQV (disulfide 7-16, also called Ala^15) [SEQ. ID. NO. 53]
4 | 100 | 38.9 | 2.4 | 97 | 12.7 | 0.5 | – | – | – | – | – | – | – | DFDALRCMLGRVYRPCWQV (disulfide 7-16, also called Ala^4) [SEQ. ID. NO. 44]
5 | 102 | 28.6 | 1.1 | 97 | 9.9 | 0.2 | – | – | – | – | – | – | – | DADMLRCMLGRVYRPCWQV (disulfide 7-16, also called Ala^2) [SEQ. ID. NO. 42]
6 | – | – | – | – | – | – | 104 | 24 | 22 | 1900 | 2.2 | 90 | – | Ac-RCML[Aib]RVYRPC-NH2 (disulfide 2-11; SMILES CSCC[C@@H]1NC(=O)[C@@H](NC(=O)[C@H](CCCNC(=N)N)NC(C)=O)CSSC[C@@H](C(N)=O)NC(=O)[C@@H]2CCCN2C(=O)[C@H](CCCNC(=N)N)NC(=O)[C@H](Cc2ccc(O)cc2)NC(=O)[C@H](C(C)C)NC(=O)[C@H](CCCNC(=N)N)NC(=O)C(C)(C)NC(=O)[C@H](CC(C)C)NC1=O, also called Aib^10) [SEQ. ID. NO. 11]
7 | – | – | – | – | – | – | 106 | 24 | 39 | 3000 | 2.3 | 97 | – | Ac-RCML[dN]RVYRPC-NH2 (disulfide 2-11 (inferred), also called D-Asn^10) [SEQ. ID. NO. 18]
8 | – | – | – | – | – | – | 102 | 25 | 5 | > 10000 | 47 | 18 | – | Ac-RCML[dF]RVYRPC-NH2 (disulfide 2-11 (inferred), also called D-Phe^10) [SEQ. ID. NO. 17]
9 | – | – | – | – | – | – | 113 | 7 | 47 | 2560 | 1.6 | 31 | – | Ac-RCML[dS]RVYRPC-NH2 (disulfide 2-11 (inferred), also called D-Ser^10) [SEQ. ID. NO. 19]
10 | – | – | – | – | – | – | 43 | > 10000 | 72 | 1200 | 0.4 | 6.9 | – | RCMLGXVYRPC (Harg^11 (homoarginine), also called Harg^11) [SEQ. ID. NO. 24]
11 | – | – | – | – | – | – | 74 | 207 | 0.1 | > 10000 | 74 | 11 | – | Ac-RCML[dCha]RVYRPC-NH2 (disulfide 2-11 (inferred), also called D-Cha^10) [SEQ. ID. NO. 16]

Second part, the binder before the results:

Row | Binder | Activation % at 10 µM (aequorin functional assay) [1] [%] | EC50 (aequorin functional assay) [1] [nM] | IC50 [2] [nM] | Activation % at 10 µM (aequorin functional assay) (human MCH-1R [3]) [%] | EC50 (aequorin functional assay) (human MCH-1R [3]) [nM] | IC50 (human MCH-1R [4]) [nM] | Activation % at 10 µM (aequorin functional assay) [5] [%] | EC50 (aequorin functional assay) [5] [nM] | Activation % at 10 µM (aequorin functional assay) (human MCH-1R [6]) [%] | EC50 (aequorin functional assay) (human MCH-1R [6]) [nM] | IC50 [7] [nM] | IC50 (human MCH-1R [8]) [nM] | % @ concentration (human MCH-1R [8]) [% @ 1 µM]
12 | DFDMLRCMLGRAYRPCWQV (disulfide 7-16, also called Ala^12) [SEQ. ID. NO. 50] | 98 | 83.6 | 25 | 95 | 38.3 | 0.9 | – | – | – | – | – | – | –
13 | DFDMLRCMLGRVYRPCAQV (disulfide 7-16, also called Ala^17) [SEQ. ID. NO. 54] | 95 | 54.2 | 5.1 | 100 | 6.8 | 0.1 | – | – | – | – | – | – | –
14 | DFDMLRCALGRVYRPCWQV (disulfide 7-16) [SEQ. ID. NO. 47] | 94 | 125 | 40 | 56 | 731 | 40.1 | – | – | – | – | – | – | –
15 | DFAMLRCMLGRVYRPCWQV (disulfide 7-16, also called Ala^3) [SEQ. ID. NO. 43] | 95 | 57.2 | 1.2 | 97 | 30.2 | 0.5 | – | – | – | – | – | – | –
16 | DFDMLRCMLGRVYAPCWQV (disulfide 7-16, also called Ala^14) [SEQ. ID. NO. 52] | 81 | 186 | 62 | 97 | 28.3 | 1.4 | – | – | – | – | – | – | –
17 | DFDMLRCMLGRVARPCWQV (disulfide 7-16, also called Ala^13) [SEQ. ID. NO. 51] | – | > 1000 | 670 | 20 | 2300 | 253 | – | – | – | – | – | – | –
18 | DFDMLRCMLGRVYRPCWAV (disulfide 7-16, also called Ala^18) [SEQ. ID. NO. 55] | 97 | 80.8 | 9.5 | 99 | 36.1 | 0.7 | – | – | – | – | – | – | –
19 | DFDMLACMLGRVYRPCWQV (disulfide 7-16, also called Ala^6) [SEQ. ID. NO. 46] | 76 | 853 | 200 | 81 | 161 | 4.5 | – | – | – | – | – | – | –
20 | DFDMARCMLGRVYRPCWQV (disulfide 7-16, also called Ala^5) [SEQ. ID. NO. 45] | 94 | 17.9 | 2 | 96 | 20.3 | 0.3 | – | – | – | – | – | – | –
21 | DFDMLRCMAGRVYRPCWQV (disulfide 7-16, also called Ala^9) [SEQ. ID. NO. 48] | 92 | 95.7 | 9.5 | 96 | 22 | 0.9 | – | – | – | – | – | – | –
22 | RCMLGXVYRPC (Arg(NO2)^11 (nitroarginine), also called Arg(NO2)^11) [SEQ. ID. NO. 25] | – | – | – | – | – | – | 39 | > 10000 | – | > 1000 | 4.9 | – | 80
23 | RCMLXRVYRPC (Phg^10 (phenylglycine), also called Phg^10) [SEQ. ID. NO. 12] | – | – | – | – | – | – | 80 | 140 | 0.1 | > 10000 | 312 | 2.9 | –
24 | Ac-RCML[dA]RVYRPC-NH2 (disulfide 2-11; SMILES CSCC[C@@H]1NC(=O)[C@@H](NC(=O)[C@H](CCCNC(=N)N)NC(C)=O)CSSC[C@@H](C(N)=O)NC(=O)[C@@H]2CCCN2C(=O)[C@H](CCCNC(=N)N)NC(=O)[C@H](Cc2ccc(O)cc2)NC(=O)[C@H](C(C)C)NC(=O)[C@H](CCCNC(=N)N)NC(=O)[C@@H](C)NC(=O)[C@H](CC(C)C)NC1=O, also called D-Ala^10) [SEQ. ID. NO. 13] | – | – | – | – | – | – | 103 | 16 | 40 | 1360 | 3.2 | 490 | –
